Source: publication PMC8605356

Legend:
[1] = target: α-D-fructofuranosidase and difructose dianhydride I synthase/hydrolase from Bifidobacterium dentium (Bifidobacterium dentium JCM 1195); assay: crystal structure; sitting drop vapor diffusion at 20 °C, 10 mg/ml αFFase1 in 5 mM Na acetate pH 6.0, reservoir 20% PEG 3350 and 0.2 M disodium tartrate; ligand-free and cocrystals with D-fructose or D-arabinose; hexamer in the asymmetric unit
[2] = target: α-D-fructofuranosidase and difructose dianhydride I synthase/hydrolase from Bifidobacterium dentium (Bifidobacterium dentium JCM 1195); assay: SEC; size-exclusion chromatography of the purified protein; conditions of this analysis not told (the purification used Hiload 16/60 Superdex 200 pg in 25 mM Tris HCl pH 7.0, 300 mM NaCl)

- stoichiometry N [1]: 6
- stoichiometry N [2]: 6
Substance: α-D-fructofuranosidase and difructose dianhydride I synthase/hydrolase from Bifidobacterium dentium (enzyme)
